# Substitutions are numbered along the chain they refer to.
# B1: MG 40 (protein, part only)
# chain: SLSLNDGSYQSEIDLSGGANFREKFRNFANELSEAITNSPKGLDRPVPKTEISGLIKTGDNFITPSFKAGYYDHVASDGSLLSYYQSTEYFNNRVLMPILQTTNGTLMANNRGYDDVFRQVPSFSGWSNTKATTVSTSNNLTYDKWTYFAAKGSPLYDSYPNHFFEDVKTLAIDAKDISALKTTIDSEKPTYLIIRGLSGNGSQLNELQLPESVKKVSLYGDYTGVNVAKQIFANVVELEFYSTSKANSFGFNPLVLGSKTNVINDLFASKPFTHIDLTQVPLQNSDNSAIDANKLKQAVGDIYNYRRFERQFQGYFAGGYIDKYLVKNVNTNKDSDDDLVYRSLKELNLHLEEAYREGDNTYYRVNENYYPGASIYENERASRDSEFQNEILKRAEQNGVTFDEN
# modifications: N-terminal His-tag and thrombin site
# B2: MG WT* (truncated M. genitalium protein M, amino acids 74-479, with Y338) (protein)
# chain: B1 chain with N265Y, P282T
# B3: MG 31 (protein, part only)
# chain: B1 chain with P282T, V300I, V327I, N329I, K334P, S336V, L340I, T362I
# modifications: N-terminal His-tag and thrombin site
# B4: MG66* (modified M. genitalium protein M MG66 with Y338) (protein)
# chain: B1 chain with S77E, S123R, S125P, A132P, S159Q, F164T, N201D, N265Y, A269V
# B5: MG29 (modified M. genitalium protein M MG29, N338) (protein, not shown: small tags and cut ends)
# chain: B1 chain with S77E, S123R, S125P, S159Q, F164T, A269V, P282T
# B6: protein M (SEQ ID NO:2), His-tag removed by thrombin cleavage (protein)
# chain: HHHHHHSSGLVPRGSHMTNLVNQSGYALVASGRSGNLGFKLFSTQSPSAEVKLKSLSLNDGSYQSEIDLSGGANFREKFRNFANELSEAITNSPKGLDRPVPKTEISGLIKTGDNFITPSFKAGYYDHVASDGSLLSYYQSTEYFNNRVLMPILQTTNGTLMANNRGYDDVFRQVPSFSGWSNTKATTVSTSNNLTYDKWTYFAAKGSPLYDSYPNHFFEDVKTLAIDAKDISALKTTIDSEKPTYLIIRGLSGNGSQLNELQLPESVKKVSLYGDYTGVNVAKQIFANVVELEFYSTSKANSFGFNPLVLGSKTNVIYDLFASKPFTHIDLTQVTLQNSDNSAIDANKLKQAVGDIYNYRRFERQFQGYFAGGYIDKYLVKNVNTNKDSDDDLVYRSLKELNLHLEEAYREGDNTYYRVNENYYPGASIYENERASRDSEFQNEILKRAEQNGVTFDENIKRITASGKYSVQFQKLENDTDSSLERMTKAVEGLVTVIGEEKFETVDITGVSSDTNEVKSLAKELKTNALGVKLKL
# Legend:
# [1] = biological target: IgG affixed to the BLI probe; assay: BLI kinetic analysis, 1:1 fit, protein M 15.6-250 nM, IgG on Anti-Mouse IgG Fc Capture biosensor (mouse IgG per paragraph 316), 37 C
# [2] = biological target: IgG affixed to the BLI probe; assay: BLI kinetic analysis, 1:1 fit, protein M 15.6-250 nM, IgG on Anti-Mouse IgG Fc Capture biosensor (mouse IgG per paragraph 316), 37 C; same row: KD error 0.2 nM, X2 2.5, R2 1.00
# [3] = biological target: AAV2 capsid (AAV2-Luciferase vector) (adeno-associated virus 2) (UniProt P03135); assay: cell-based or functional assay
# UniProt P03135, sequence (P03135 whole entry, the tested form may be a part): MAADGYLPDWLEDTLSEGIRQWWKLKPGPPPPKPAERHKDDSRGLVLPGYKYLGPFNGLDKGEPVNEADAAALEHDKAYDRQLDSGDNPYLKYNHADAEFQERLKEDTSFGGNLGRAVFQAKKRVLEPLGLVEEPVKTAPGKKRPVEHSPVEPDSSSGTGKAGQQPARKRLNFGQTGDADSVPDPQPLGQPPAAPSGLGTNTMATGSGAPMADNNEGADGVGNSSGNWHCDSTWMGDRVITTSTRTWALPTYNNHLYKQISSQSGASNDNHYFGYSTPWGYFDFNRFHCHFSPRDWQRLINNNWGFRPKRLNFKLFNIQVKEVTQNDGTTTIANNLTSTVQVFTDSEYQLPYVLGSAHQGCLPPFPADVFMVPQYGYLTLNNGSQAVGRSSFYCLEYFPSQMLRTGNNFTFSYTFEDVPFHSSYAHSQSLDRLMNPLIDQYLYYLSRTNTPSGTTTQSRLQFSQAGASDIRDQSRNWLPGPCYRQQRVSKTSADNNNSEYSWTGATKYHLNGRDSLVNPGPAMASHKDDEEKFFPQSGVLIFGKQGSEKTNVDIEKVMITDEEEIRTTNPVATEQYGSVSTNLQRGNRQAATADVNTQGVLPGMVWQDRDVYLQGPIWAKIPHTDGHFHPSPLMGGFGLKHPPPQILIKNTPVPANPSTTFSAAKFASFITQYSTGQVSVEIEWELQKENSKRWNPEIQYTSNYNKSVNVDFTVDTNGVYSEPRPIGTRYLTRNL
# [4] = biological target: IgG affixed to the BLI probe; assay: BLI kinetic analysis, 1:1 fit, protein M 15.6-250 nM, IgG on Anti-Mouse IgG Fc Capture biosensor (mouse IgG per paragraph 316), 37 C; same row: KD error 0.2 nM, X2 1.9, R2 1.00
# [5] = biological target: IgG affixed to the BLI probe; assay: BLI at 37° C, IgG Fc capture biosensor (AHC or AMC, not told which), 1:1 fit, max conc. 50 nM, 6 points
# [6] = biological target: IgG affixed to the BLI probe; assay: BLI kinetic analysis, 1:1 fit, protein M 15.6-250 nM, IgG on Anti-Mouse IgG Fc Capture biosensor (mouse IgG per paragraph 316), 37 C; same row: KD error 0.5 nM, X2 2.4, R2 0.99
# [7] = biological target: IgG affixed to the BLI probe; assay: BLI at 37° C, IgG Fc capture biosensor (AHC or AMC, not told which), 1:1 fit, max conc. 250 nM, 5 dilutions
# [8] = biological target: AAV2 capsid (AAV2-Luciferase vector) (adeno-associated virus 2) (UniProt P03135); assay: cell-based or functional assay; remark: listed apart in the source
# [9] = biological target: human intravenous immunoglobulin gamma (IVIG), 10% Human IVIG (Gamunex) (human); assay: cell-based or functional assay
molecule,measurement,setting,value
MG WT,koff,[1],0.00033 s⁻¹
same,kon,[1],28000 M⁻¹ s⁻¹
same,Kd,[2],11.9 nM
protein M without cleavage of the His tag (from UniProt P47523 37-556),molar ratio of protein M to AAV2 particle at which enhancement begins to saturate (protein M molecules per AAV2 particle),[3],700000
same,molar ratio of protein M to AAV2 particle below which enhancement of the luciferase signal is abolished (protein M molecules per AAV2 particle),[3],< 40000
B1,koff,[1],0.00031 s⁻¹
same,kon,[1],31000 M⁻¹ s⁻¹
same,Kd,[4],10.1 nM
B2,Kd,[5],0.8 nM
same,koff,[5],6.73e-05 s⁻¹
same,kon,[5],83800 M⁻¹ s⁻¹
B3,koff,[1],0.00047 s⁻¹
same,kon,[1],30000 M⁻¹ s⁻¹
same,Kd,[6],15.5 nM
B4,Kd,[5],0.69 nM
same,koff,[5],5.55e-05 s⁻¹
same,kon,[5],80100 M⁻¹ s⁻¹
B5,Kd,[7],7.9 nM
same,koff,[7],0.00034 s⁻¹
same,kon,[7],43000 M⁻¹ s⁻¹
B6,"AAV2-Luciferase signal, % of PBS control, 33 µg protein M incubated alone with AAV2 (% of PBS control)",[8],216
same,"AAV2-Luciferase signal, % of PBS control, 75 µg protein M incubated alone with AAV2 (% of PBS control)",[8],208
same,"AAV2-Luciferase signal, % of no-IVIG control, at 8:1 molar ratio (33 µg protein M, 12.5 µg IVIG) (% of no-IVIG control)",[9],194
same,"AAV2-Luciferase signal, % of no-IVIG control, at 20:1 molar ratio (75 µg protein M, 12.5 µg IVIG) (% of no-IVIG control)",[9],256
same,"AAV2-Luciferase signal, % of no-IVIG control, at protein M:IgG molar ratio 0.5:1 (% of no-IVIG control)",[9],40
same,"AAV2-Luciferase signal, % of no-IVIG control, at protein M:IgG molar ratio 1:1 (% of no-IVIG control)",[9],52
same,"AAV2-Luciferase signal, % of no-IVIG control, at protein M:IgG molar ratios greater than 2:1 (12.5 µg IVIG) (% of no-IVIG control)",[9],108 to 193
same,molar ratio of protein M to IgG sufficient to prevent AAV2 neutralization (protein M molecules per IgG molecule),[9],2
